Key:
[1] = molecular target: human glucagon receptor (Glucagon-R) (human, UniProt P47871 26-477); test: cell-based or functional assay
[2] = molecular target: human glucagon-like peptide 1 receptor (GLP-1R) (human, UniProt P43220 24-463); test: cell-based or functional assay

Sequence of human glucagon receptor (Glucagon-R) (P47871 26-477): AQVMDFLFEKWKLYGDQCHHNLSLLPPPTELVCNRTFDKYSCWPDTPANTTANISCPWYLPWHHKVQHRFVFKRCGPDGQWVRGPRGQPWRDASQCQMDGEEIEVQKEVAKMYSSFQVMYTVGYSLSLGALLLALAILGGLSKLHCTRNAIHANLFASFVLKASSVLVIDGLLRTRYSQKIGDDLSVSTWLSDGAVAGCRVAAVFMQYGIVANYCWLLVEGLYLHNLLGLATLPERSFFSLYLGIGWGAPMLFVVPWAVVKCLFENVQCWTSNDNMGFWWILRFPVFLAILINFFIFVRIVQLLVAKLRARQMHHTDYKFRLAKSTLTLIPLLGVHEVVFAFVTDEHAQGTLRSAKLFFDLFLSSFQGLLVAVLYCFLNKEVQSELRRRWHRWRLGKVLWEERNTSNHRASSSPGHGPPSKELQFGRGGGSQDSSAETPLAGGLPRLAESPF

B1: H-H-Aib-HGTFTSDYSRYLDE-K(Hexadecanoyl-isoGlu)-RARDFIEWLLSA-NH2 [Compound 12] (peptide)
peptide: HXHGTFTSDYSRYLDEKRARDFIEWLLSA
HELM: PEPTIDE1{H.[Aib].H.G.T.F.T.S.D.Y.S.R.Y.L.D.E.K.R.A.R.D.F.I.E.W.L.L.S.A.[am]}|PEPTIDE2{[CCCCCCCCCCCCCCCC(=O)[*:2]].[gGlu]}$PEPTIDE1,PEPTIDE2,17:R3-2:R2$$$V2.0
SMILES: CCCCCCCCCCCCCCCC(=O)N[C@@H](CCC(=O)NCCCC[C@H](NC(=O)[C@H](CCC(=O)O)NC(=O)[C@H](CC(=O)O)NC(=O)[C@H](CC(C)C)NC(=O)[C@H](Cc1ccc(O)cc1)NC(=O)[C@H](CCCNC(=N)N)NC(=O)[C@H](CO)NC(=O)[C@H](Cc1ccc(O)cc1)NC(=O)[C@H](CC(=O)O)NC(=O)[C@H](CO)NC(=O)[C@@H](NC(=O)[C@H](Cc1ccccc1)NC(=O)[C@@H](NC(=O)CNC(=O)[C@H](Cc1c[nH]cn1)NC(=O)C(C)(C)NC(=O)[C@@H](N)Cc1c[nH]cn1)[C@@H](C)O)[C@@H](C)O)C(=O)N[C@@H](CCCNC(=N)N)C(=O)N[C@@H](C)C(=O)N[C@@H](CCCNC(=N)N)C(=O)N[C@@H](CC(=O)O)C(=O)N[C@@H](Cc1ccccc1)C(=O)N[C@H](C(=O)N[C@@H](CCC(=O)O)C(=O)N[C@@H](Cc1c[nH]c2ccccc12)C(=O)N[C@@H](CC(C)C)C(=O)N[C@@H](CC(C)C)C(=O)N[C@@H](CO)C(=O)N[C@@H](C)C(N)=O)[C@@H](C)CC)C(=O)O
B1 was tested, and the “EC50 values for cAMP generation in HEK293 cells expressing Glucagon receptor” value [1] was 0.14 nM and the “EC50 values for cAMP generation in HEK293 cells expressing GLP-1 receptor” value [2] was 0.06 nM.

B2: H-H-DSer-PGTFTSDYSRYLDE-K(Hexadecanoyl-isoGlu)-RARDFIEWLLSA-NH2 [Compound 14] (peptide)
peptide: HXPGTFTSDYSRYLDEKRARDFIEWLLSA
HELM: PEPTIDE1{H.[dS].P.G.T.F.T.S.D.Y.S.R.Y.L.D.E.K.R.A.R.D.F.I.E.W.L.L.S.A.[am]}|PEPTIDE2{[CCCCCCCCCCCCCCCC(=O)[*:2]].[gGlu]}$PEPTIDE1,PEPTIDE2,17:R3-2:R2$$$V2.0
SMILES: CCCCCCCCCCCCCCCC(=O)N[C@@H](CCC(=O)NCCCC[C@H](NC(=O)[C@H](CCC(=O)O)NC(=O)[C@H](CC(=O)O)NC(=O)[C@H](CC(C)C)NC(=O)[C@H](Cc1ccc(O)cc1)NC(=O)[C@H](CCCNC(=N)N)NC(=O)[C@H](CO)NC(=O)[C@H](Cc1ccc(O)cc1)NC(=O)[C@H](CC(=O)O)NC(=O)[C@H](CO)NC(=O)[C@@H](NC(=O)[C@H](Cc1ccccc1)NC(=O)[C@@H](NC(=O)CNC(=O)[C@@H]1CCCN1C(=O)[C@@H](CO)NC(=O)[C@@H](N)Cc1c[nH]cn1)[C@@H](C)O)[C@@H](C)O)C(=O)N[C@@H](CCCNC(=N)N)C(=O)N[C@@H](C)C(=O)N[C@@H](CCCNC(=N)N)C(=O)N[C@@H](CC(=O)O)C(=O)N[C@@H](Cc1ccccc1)C(=O)N[C@H](C(=O)N[C@@H](CCC(=O)O)C(=O)N[C@@H](Cc1c[nH]c2ccccc12)C(=O)N[C@@H](CC(C)C)C(=O)N[C@@H](CC(C)C)C(=O)N[C@@H](CO)C(=O)N[C@@H](C)C(N)=O)[C@@H](C)CC)C(=O)O
B2 was tested, and the “EC50 values for cAMP generation in HEK293 cells expressing Glucagon receptor” value [1] was 0.19 nM and the “EC50 values for cAMP generation in HEK293 cells expressing GLP-1 receptor” value [2] was 0.12 nM.

B3: H-H-Aib-PGTFTSDYSRYLDE-K(Hexadecanoyl-isoGlu)-RARDFIEWLLSA-NH2 [Compound 15] (peptide)
peptide: HXPGTFTSDYSRYLDEKRARDFIEWLLSA
HELM: PEPTIDE1{H.[Aib].P.G.T.F.T.S.D.Y.S.R.Y.L.D.E.K.R.A.R.D.F.I.E.W.L.L.S.A.[am]}|PEPTIDE2{[CCCCCCCCCCCCCCCC(=O)[*:2]].[gGlu]}$PEPTIDE1,PEPTIDE2,17:R3-2:R2$$$V2.0
SMILES: CCCCCCCCCCCCCCCC(=O)N[C@@H](CCC(=O)NCCCC[C@H](NC(=O)[C@H](CCC(=O)O)NC(=O)[C@H](CC(=O)O)NC(=O)[C@H](CC(C)C)NC(=O)[C@H](Cc1ccc(O)cc1)NC(=O)[C@H](CCCNC(=N)N)NC(=O)[C@H](CO)NC(=O)[C@H](Cc1ccc(O)cc1)NC(=O)[C@H](CC(=O)O)NC(=O)[C@H](CO)NC(=O)[C@@H](NC(=O)[C@H](Cc1ccccc1)NC(=O)[C@@H](NC(=O)CNC(=O)[C@@H]1CCCN1C(=O)C(C)(C)NC(=O)[C@@H](N)Cc1c[nH]cn1)[C@@H](C)O)[C@@H](C)O)C(=O)N[C@@H](CCCNC(=N)N)C(=O)N[C@@H](C)C(=O)N[C@@H](CCCNC(=N)N)C(=O)N[C@@H](CC(=O)O)C(=O)N[C@@H](Cc1ccccc1)C(=O)N[C@H](C(=O)N[C@@H](CCC(=O)O)C(=O)N[C@@H](Cc1c[nH]c2ccccc12)C(=O)N[C@@H](CC(C)C)C(=O)N[C@@H](CC(C)C)C(=O)N[C@@H](CO)C(=O)N[C@@H](C)C(N)=O)[C@@H](C)CC)C(=O)O
B3 was tested, and the “EC50 values for cAMP generation in HEK293 cells expressing Glucagon receptor” value [1] was 0.42 nM and the “EC50 values for cAMP generation in HEK293 cells expressing GLP-1 receptor” value [2] was 0.06 nM.

B4: H-H-Aib-QGTFTSDYSRYLDE-K(Hexadecanoyl-isoGlu)-RAKDFIEWLLSA-NH2 [Compound 16] (peptide)
peptide: HXQGTFTSDYSRYLDEKRAKDFIEWLLSA
HELM: PEPTIDE1{H.[Aib].Q.G.T.F.T.S.D.Y.S.R.Y.L.D.E.K.R.A.K.D.F.I.E.W.L.L.S.A.[am]}|PEPTIDE2{[CCCCCCCCCCCCCCCC(=O)[*:2]].[gGlu]}$PEPTIDE1,PEPTIDE2,17:R3-2:R2$$$V2.0
SMILES: CCCCCCCCCCCCCCCC(=O)N[C@@H](CCC(=O)NCCCC[C@H](NC(=O)[C@H](CCC(=O)O)NC(=O)[C@H](CC(=O)O)NC(=O)[C@H](CC(C)C)NC(=O)[C@H](Cc1ccc(O)cc1)NC(=O)[C@H](CCCNC(=N)N)NC(=O)[C@H](CO)NC(=O)[C@H](Cc1ccc(O)cc1)NC(=O)[C@H](CC(=O)O)NC(=O)[C@H](CO)NC(=O)[C@@H](NC(=O)[C@H](Cc1ccccc1)NC(=O)[C@@H](NC(=O)CNC(=O)[C@H](CCC(N)=O)NC(=O)C(C)(C)NC(=O)[C@@H](N)Cc1c[nH]cn1)[C@@H](C)O)[C@@H](C)O)C(=O)N[C@@H](CCCNC(=N)N)C(=O)N[C@@H](C)C(=O)N[C@@H](CCCCN)C(=O)N[C@@H](CC(=O)O)C(=O)N[C@@H](Cc1ccccc1)C(=O)N[C@H](C(=O)N[C@@H](CCC(=O)O)C(=O)N[C@@H](Cc1c[nH]c2ccccc12)C(=O)N[C@@H](CC(C)C)C(=O)N[C@@H](CC(C)C)C(=O)N[C@@H](CO)C(=O)N[C@@H](C)C(N)=O)[C@@H](C)CC)C(=O)O
B4 was tested, and the “EC50 values for cAMP generation in HEK293 cells expressing Glucagon receptor” value [1] was 0.11 nM and the “EC50 values for cAMP generation in HEK293 cells expressing GLP-1 receptor” value [2] was 0.06 nM.

B5: H-HSHGTFTSDYSKYLDE-K(Hexadecanoyl-isoGlu)-RAKDFIEWLLSA-NH2 [Compound 18] (peptide)
peptide: HSHGTFTSDYSKYLDEKRAKDFIEWLLSA
HELM: PEPTIDE1{H.S.H.G.T.F.T.S.D.Y.S.K.Y.L.D.E.K.R.A.K.D.F.I.E.W.L.L.S.A.[am]}|PEPTIDE2{[CCCCCCCCCCCCCCCC(=O)[*:2]].[gGlu]}$PEPTIDE1,PEPTIDE2,17:R3-2:R2$$$V2.0
SMILES: CCCCCCCCCCCCCCCC(=O)N[C@@H](CCC(=O)NCCCC[C@H](NC(=O)[C@H](CCC(=O)O)NC(=O)[C@H](CC(=O)O)NC(=O)[C@H](CC(C)C)NC(=O)[C@H](Cc1ccc(O)cc1)NC(=O)[C@H](CCCCN)NC(=O)[C@H](CO)NC(=O)[C@H](Cc1ccc(O)cc1)NC(=O)[C@H](CC(=O)O)NC(=O)[C@H](CO)NC(=O)[C@@H](NC(=O)[C@H](Cc1ccccc1)NC(=O)[C@@H](NC(=O)CNC(=O)[C@H](Cc1c[nH]cn1)NC(=O)[C@H](CO)NC(=O)[C@@H](N)Cc1c[nH]cn1)[C@@H](C)O)[C@@H](C)O)C(=O)N[C@@H](CCCNC(=N)N)C(=O)N[C@@H](C)C(=O)N[C@@H](CCCCN)C(=O)N[C@@H](CC(=O)O)C(=O)N[C@@H](Cc1ccccc1)C(=O)N[C@H](C(=O)N[C@@H](CCC(=O)O)C(=O)N[C@@H](Cc1c[nH]c2ccccc12)C(=O)N[C@@H](CC(C)C)C(=O)N[C@@H](CC(C)C)C(=O)N[C@@H](CO)C(=O)N[C@@H](C)C(N)=O)[C@@H](C)CC)C(=O)O
In the case of B5, the “EC50 values for cAMP generation in HEK293 cells expressing Glucagon receptor” value [1] is reported as 0.09 nM and the “EC50 values for cAMP generation in HEK293 cells expressing GLP-1 receptor” value [2] is reported as 0.09 nM.

B6: H-H-DSer-PGTFTSDYSKYLDE-K(Hexadecanoyl-isoGlu)-RAKDFIEWLLSA-NH2 [Compound 21] (peptide)
peptide: HSPGTFTSDYSKYLDEKRAKDFIEWLLSA
HELM: PEPTIDE1{H.[dS].P.G.T.F.T.S.D.Y.S.K.Y.L.D.E.K.R.A.K.D.F.I.E.W.L.L.S.A.[am]}|PEPTIDE2{[CCCCCCCCCCCCCCCC(=O)[*:2]].[gGlu]}$PEPTIDE1,PEPTIDE2,17:R3-2:R2$$$V2.0
SMILES: CCCCCCCCCCCCCCCC(=O)N[C@@H](CCC(=O)NCCCC[C@H](NC(=O)[C@H](CCC(=O)O)NC(=O)[C@H](CC(=O)O)NC(=O)[C@H](CC(C)C)NC(=O)[C@H](Cc1ccc(O)cc1)NC(=O)[C@H](CCCCN)NC(=O)[C@H](CO)NC(=O)[C@H](Cc1ccc(O)cc1)NC(=O)[C@H](CC(=O)O)NC(=O)[C@H](CO)NC(=O)[C@@H](NC(=O)[C@H](Cc1ccccc1)NC(=O)[C@@H](NC(=O)CNC(=O)[C@@H]1CCCN1C(=O)[C@@H](CO)NC(=O)[C@@H](N)Cc1c[nH]cn1)[C@@H](C)O)[C@@H](C)O)C(=O)N[C@@H](CCCNC(=N)N)C(=O)N[C@@H](C)C(=O)N[C@@H](CCCCN)C(=O)N[C@@H](CC(=O)O)C(=O)N[C@@H](Cc1ccccc1)C(=O)N[C@H](C(=O)N[C@@H](CCC(=O)O)C(=O)N[C@@H](Cc1c[nH]c2ccccc12)C(=O)N[C@@H](CC(C)C)C(=O)N[C@@H](CC(C)C)C(=O)N[C@@H](CO)C(=O)N[C@@H](C)C(N)=O)[C@@H](C)CC)C(=O)O
In the case of B6, the “EC50 values for cAMP generation in HEK293 cells expressing Glucagon receptor” value [1] is reported as 0.21 nM and the “EC50 values for cAMP generation in HEK293 cells expressing GLP-1 receptor” value [2] is reported as 0.08 nM.

B7: H-H-Aib-QGTFTSDYSKYLDERRA-K(Hexadecanoyl-isoGlu)-DFIEWLLSA-NH2 [Compound 2] (peptide)
peptide: HXQGTFTSDYSKYLDERRAKDFIEWLLSA
HELM: PEPTIDE1{H.[Aib].Q.G.T.F.T.S.D.Y.S.K.Y.L.D.E.R.R.A.K.D.F.I.E.W.L.L.S.A.[am]}|PEPTIDE2{[CCCCCCCCCCCCCCCC(=O)[*:2]].[gGlu]}$PEPTIDE1,PEPTIDE2,20:R3-2:R2$$$V2.0
SMILES: CCCCCCCCCCCCCCCC(=O)N[C@@H](CCC(=O)NCCCC[C@H](NC(=O)[C@H](C)NC(=O)[C@H](CCCNC(=N)N)NC(=O)[C@H](CCCNC(=N)N)NC(=O)[C@H](CCC(=O)O)NC(=O)[C@H](CC(=O)O)NC(=O)[C@H](CC(C)C)NC(=O)[C@H](Cc1ccc(O)cc1)NC(=O)[C@H](CCCCN)NC(=O)[C@H](CO)NC(=O)[C@H](Cc1ccc(O)cc1)NC(=O)[C@H](CC(=O)O)NC(=O)[C@H](CO)NC(=O)[C@@H](NC(=O)[C@H](Cc1ccccc1)NC(=O)[C@@H](NC(=O)CNC(=O)[C@H](CCC(N)=O)NC(=O)C(C)(C)NC(=O)[C@@H](N)Cc1c[nH]cn1)[C@@H](C)O)[C@@H](C)O)C(=O)N[C@@H](CC(=O)O)C(=O)N[C@@H](Cc1ccccc1)C(=O)N[C@H](C(=O)N[C@@H](CCC(=O)O)C(=O)N[C@@H](Cc1c[nH]c2ccccc12)C(=O)N[C@@H](CC(C)C)C(=O)N[C@@H](CC(C)C)C(=O)N[C@@H](CO)C(=O)N[C@@H](C)C(N)=O)[C@@H](C)CC)C(=O)O
With B7 the “EC50 values for cAMP generation in HEK293 cells expressing Glucagon receptor” value [1] was 0.35 nM and the “EC50 values for cAMP generation in HEK293 cells expressing GLP-1 receptor” value [2] was 0.36 nM.

Source: patent US20130316941A1 (Boehringer Ingelheim, published 2013)
